Measurements as given in publication PMC7525811 (Molecular Biology of the Cell, 2020).
Like-named read-outs stand apart in the source and are kept apart here. No end group written: not given here. MBP = not defined here

Experiments:
[1] = molecular target: CRM1(E571K) (Homo sapiens, UniProt O14980, E571K); assay type: binding; settings: for Kd,E571K/Kd,WT: ratio of Kds from differential photobleaching assays
[2] = molecular target: full-length human CRM1(E571K) (human) (UniProt O14980); experiment: differential photobleaching
[3] = molecular target: full-length human CRM1 (WT) (Homo sapiens, UniProt O14980); assay type: binding; settings: from photobleaching Kds
[4] = molecular target: full-length human CRM1(E571K) (human) (UniProt O14980); experiment: fluorescence polarisation
[5] = system: HEK 293 cells; experiment: Immunostaining and confocal microscopy of endogenous RPS2 with and without LMB; assay type: cell-based, human; settings: anti-RPS2 immunostaining, presence vs absence of LMB
[6] = molecular target: T1, full-length human CRM1 (wild type) (human, UniProt O14980 1-1071); experiment: differential photobleaching
[7] = molecular target: T2, full-length human CRM1(E571K) (human, UniProt O14980 1-1071, E571K); experiment: differential photobleaching
[8] = molecular target: T1, full-length human CRM1 (wild type)
[9] = molecular target: T2, full-length human CRM1(E571K)
[10] = molecular target: T1, full-length human CRM1 (wild type); experiment: differential photobleaching; remark: listed apart in the source

T1 sequence (O14980 whole entry): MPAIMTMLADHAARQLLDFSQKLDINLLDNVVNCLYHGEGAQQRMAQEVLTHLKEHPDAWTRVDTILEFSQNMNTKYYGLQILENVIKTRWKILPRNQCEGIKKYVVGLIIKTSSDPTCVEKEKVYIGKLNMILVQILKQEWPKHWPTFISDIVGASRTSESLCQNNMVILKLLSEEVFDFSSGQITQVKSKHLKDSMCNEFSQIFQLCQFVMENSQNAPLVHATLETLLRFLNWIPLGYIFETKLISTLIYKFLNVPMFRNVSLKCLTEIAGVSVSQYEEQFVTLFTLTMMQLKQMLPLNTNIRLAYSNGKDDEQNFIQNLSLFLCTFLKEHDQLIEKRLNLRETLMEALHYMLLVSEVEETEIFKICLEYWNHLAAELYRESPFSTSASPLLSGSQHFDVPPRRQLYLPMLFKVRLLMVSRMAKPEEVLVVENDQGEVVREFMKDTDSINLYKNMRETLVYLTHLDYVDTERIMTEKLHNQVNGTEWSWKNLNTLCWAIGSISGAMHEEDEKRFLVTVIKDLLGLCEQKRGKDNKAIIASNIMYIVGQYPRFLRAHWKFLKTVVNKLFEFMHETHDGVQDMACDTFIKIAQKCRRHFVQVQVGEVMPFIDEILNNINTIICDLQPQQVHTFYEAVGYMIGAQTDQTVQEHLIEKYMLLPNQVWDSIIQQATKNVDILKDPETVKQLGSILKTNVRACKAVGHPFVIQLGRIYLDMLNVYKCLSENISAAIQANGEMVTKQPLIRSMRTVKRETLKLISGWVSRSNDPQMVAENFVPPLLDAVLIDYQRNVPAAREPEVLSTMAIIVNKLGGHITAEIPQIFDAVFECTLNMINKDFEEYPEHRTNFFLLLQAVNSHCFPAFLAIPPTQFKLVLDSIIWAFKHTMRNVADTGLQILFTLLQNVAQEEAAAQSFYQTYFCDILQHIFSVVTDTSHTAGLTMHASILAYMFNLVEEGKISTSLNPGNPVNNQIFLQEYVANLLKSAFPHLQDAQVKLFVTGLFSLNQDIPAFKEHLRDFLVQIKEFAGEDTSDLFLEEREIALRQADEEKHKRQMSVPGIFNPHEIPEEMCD
Sequence of CRM1(E571K) (O14980 whole entry E571K, other chains not shown): as the sequence (O14980 whole entry) above, with E571K counted along it
T2 sequence (O14980 whole entry E571K): as the sequence (O14980 whole entry) above, with E571K counted along it
Sequence of full-length human CRM1(E571K) (human) (O14980 whole entry E571K): as the sequence (O14980 whole entry) above, with E571K counted along it
Sequence of full-length human CRM1 (WT) (O14980 whole entry, other chains not shown): as the sequence (O14980 whole entry) above

Molecule	Kd,E571K/Kd,WT [1]	Kd [7] [µM]	also measured
SSLQELVQQFEALPGDLV [X11L2^NES]	0.87	–	–
RTFDMHSLESSIDIMR [Cpeb4^NES]	3.2	–	–
SVPEVEALLARLRAL [mDia2^NES]	0.88	–	–
REELWKKLEELKLKK [PP2A B56α^NES]	8.6	–	weaker binding to CRM1(E571K) than to WT CRM1 ([1]; from photobleaching Kds): 4–10 fold
MBP-FMRP1b^NES (peptide)	–	–	Kd [2]: 9 µM
Paxillin^NES(K277A) ({MBP}-RELDELMASLSDFAFMA; reading uncertain)	2.1	–	–
YERVVSPGIDLSGLTLQ [Smad4^NES]	2.8	–	–
Mek1^NES(E41A) ({MBP}-TNLEALQKKLEELALDEQ; reading uncertain)	–	–	tighter binding to WT CRM1 than the WT Mek1^NES [3]: 14 fold
SVEEVEAGLKGLKVDQQVK [eIF4E-transporter (4E-T^NES)]	10	–	–
LKEVDQLRALERLQID [FMRP1b^NES]	3.0	–	–
RELDELMASLSDFKFMA [Paxillin^NES]	4.6	–	weaker binding to CRM1(E571K) than to WT CRM1 ([1]; from photobleaching Kds): 4–10 fold
MBP-RPS2^NES (putative NES of 40S ribosomal protein S2) (peptide)	–	–	fold weaker than to WT CRM1 [4]: 16 fold
CCC(=C/[C@H](C)C/C=C/C(C)=C/[C@@H](C)C(=O)[C@@H](C)[C@H](O)[C@@H](C)C/C(C)=C/C(=O)O)/C=C/[C@@H]1OC(=O)C=C[C@@H]1C [leptomycin B]	–	–	subcellular localization of endogenous RPS2 upon CRM1 inhibition [5]: not affected
NFEILMKLKESLELMELVP [P73^NES]	0.75	–	–
LQLPPLERLTLDC [HIV Rev^NES]	2.3	–	–
EQMVKELQEIRLEPQ [Iκβα^NES]	0.95	–	–
SLVLLPFDDLKISG [Iκβε^NES]	3.3	–	–
RSFEMTEFNQALEEIKG [hRio2^NES]	0.79	–	–
TNLEALQKKLEELELDEQ [Mek1^NES]	0.071	–	tighter (stronger) binding to CRM1(E571K) than to WT CRM1 ([1]; from photobleaching Kds): 14 fold

Molecule	Kd,E571K/Kd,WT [1]	Kd [7] [µM]	also measured
MEELSQALASSFSVSQDLNS [Snupn1^NES]	1.8	–	–
TNLEALQKKLEELELDEQ [MBP-Mek1^NES]	–	0.005	binding result [6]: binds
TNLEALQKKLEELALDEQ [MBP-Mek1^NES(E41A)]	–	–	Kd [8]: 0.005 µM; Kd [9]: 0.006 µM
YERVVSPGIDLSGLTLQ [MBP-Smad4^NES]	–	13	binding result [6]: binds
PLPVLGLGGLRISS [MBP-Dusp6^NES]	–	14	–
RTFDMHSLESSIDIMR [MBP-Cpeb4^NES]	–	1.9	–
{MBP}-SLVLLPFDDLKISG (reading uncertain) [MBP-Iκβε^NES]	–	12	Kd [10]: 3.6 µM
RELDELMASLSDFKFMA [MBP-Paxillin^NES]	–	3.1	–
NFEILMKLKESLELMELVP [MBP-P73^NES]	–	1.5	–
REELWKKLEELKLKK [MBP-PP2A B56α^NES]	–	38	Kd [10]: 4.4 µM
SVEEVEAGLKGLKVDQQVK [MBP-eIF4E-transporter NES (4E-T^NES)]	–	14	Kd [10]: 1.4 µM
RSFEMTEFNQALEEIKG [MBP-hRio2^NES]	–	1.9	–
SSLQELVQQFEALPGDLV [MBP-X11L2^NES]	–	1.3	–
SVPEVEALLARLRAL [MBP-mDia2^NES]	–	1.5	–
NSNELALKLAGLDIDE [MBP-PKI^NESDE]	–	–	fold tighter than to WT CRM1 [9]: 3 fold
{MBP}-EQMVKELQEIRLEPQ (reading uncertain) [MBP-Iκβα^NES]	–	21	Kd [10]: 22 µM
MEELSQALASSFSVSQDLNS [MBP-Snupn1^NES]	–	21	–
LQLPPLERLTLDC [MBP-HIV Rev^NES]	–	4.1	–
